Source: patent US9957297B2, “Template-fixed peptidomimetics as inhibitors of FPR1” (POLYPHOR AG, priority 2011, dated 2018)
Bridges are numbered along the chain shown (N, C = ends). [ ]: non-standard residue; d: D form. dTic = O=C(O)[C@H]1Cc2ccccc2CN1; hSer = N[C@@H](CCO)C(=O)O; Orn = NCCC[C@H](N)C(=O)O; Dab = NCC[C@H](N)C(=O)O

Molecular target: T1, Formyl-Peptide Receptor 1 (UniProt P21462 1-350, limits assumed)
T1 sequence (looked up): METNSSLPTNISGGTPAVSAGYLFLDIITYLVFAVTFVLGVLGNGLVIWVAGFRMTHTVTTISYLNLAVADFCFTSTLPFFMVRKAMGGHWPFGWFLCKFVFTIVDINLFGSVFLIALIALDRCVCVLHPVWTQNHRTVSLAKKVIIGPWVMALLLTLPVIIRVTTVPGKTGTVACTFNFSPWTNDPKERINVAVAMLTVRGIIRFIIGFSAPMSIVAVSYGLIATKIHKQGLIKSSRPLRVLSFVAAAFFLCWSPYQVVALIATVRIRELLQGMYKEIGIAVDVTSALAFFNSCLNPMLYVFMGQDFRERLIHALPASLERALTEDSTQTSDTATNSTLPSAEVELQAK
Experiment: cell-based or functional assay

Binder	β-Arrestin IC50 [nM]
cyclo(YHKCHG[dP]WTICYET[dP]P) (disulfide 4-11; SMILES CC[C@H](C)[C@@H]1NC(=O)[C@H]([C@@H](C)O)NC(=O)[C@H](Cc2c[nH]c3ccccc23)NC(=O)[C@H]2CCCN2C(=O)CNC(=O)[C@H](Cc2c[nH]cn2)NC(=O)[C@@H]2CSSC[C@H](NC1=O)C(=O)N[C@@H](Cc1ccc(O)cc1)C(=O)N[C@@H](CCC(=O)O)C(=O)N[C@@H]([C@@H](C)O)C(=O)N1CCC[C@@H]1C(=O)N1CCC[C@H]1C(=O)N[C@@H](Cc1ccc(O)cc1)C(=O)N[C@@H](Cc1c[nH]cn1)C(=O)N[C@@H](CCCCN)C(=O)N2) [cyclo(-Tyr-His-Lys-Cys-His-Gly-^DPro-Trp-Thr-Ile-Cys-Tyr-Glu-Thr-^DPro-Pro-)]	197
cyclo(YHKCHG[dP]WTICYEG[dP]P) (disulfide 4-11; SMILES CC[C@H](C)[C@@H]1NC(=O)[C@H]([C@@H](C)O)NC(=O)[C@H](Cc2c[nH]c3ccccc23)NC(=O)[C@H]2CCCN2C(=O)CNC(=O)[C@H](Cc2c[nH]cn2)NC(=O)[C@@H]2CSSC[C@H](NC1=O)C(=O)N[C@@H](Cc1ccc(O)cc1)C(=O)N[C@@H](CCC(=O)O)C(=O)NCC(=O)N1CCC[C@@H]1C(=O)N1CCC[C@H]1C(=O)N[C@@H](Cc1ccc(O)cc1)C(=O)N[C@@H](Cc1c[nH]cn1)C(=O)N[C@@H](CCCCN)C(=O)N2) [cyclo(-Tyr-His-Lys-Cys-His-Gly-^DPro-Trp-Thr-Ile-Cys-Tyr-Glu-Gly-^DPro-Pro-)]	250
cyclo(YHKCHG[dP]WTICYE[hSer][dP]P) (disulfide 4-11; SMILES CC[C@H](C)[C@@H]1NC(=O)[C@H]([C@@H](C)O)NC(=O)[C@H](Cc2c[nH]c3ccccc23)NC(=O)[C@H]2CCCN2C(=O)CNC(=O)[C@H](Cc2c[nH]cn2)NC(=O)[C@@H]2CSSC[C@H](NC1=O)C(=O)N[C@@H](Cc1ccc(O)cc1)C(=O)N[C@@H](CCC(=O)O)C(=O)N[C@@H](CCO)C(=O)N1CCC[C@@H]1C(=O)N1CCC[C@H]1C(=O)N[C@@H](Cc1ccc(O)cc1)C(=O)N[C@@H](Cc1c[nH]cn1)C(=O)N[C@@H](CCCCN)C(=O)N2) [cyclo(-Tyr-His-Lys-Cys-His-Gly-^DPro-Trp-Thr-Ile-Cys-Tyr-Glu-Hse-^DPro-Pro-)]	24
cyclo(YHKCHG[dP]WTICYEK[dA]E) (disulfide 4-11; SMILES CC[C@H](C)[C@@H]1NC(=O)[C@H]([C@@H](C)O)NC(=O)[C@H](Cc2c[nH]c3ccccc23)NC(=O)[C@H]2CCCN2C(=O)CNC(=O)[C@H](Cc2c[nH]cn2)NC(=O)[C@@H]2CSSC[C@H](NC1=O)C(=O)N[C@@H](Cc1ccc(O)cc1)C(=O)N[C@@H](CCC(=O)O)C(=O)N[C@@H](CCCCN)C(=O)N[C@H](C)C(=O)N[C@@H](CCC(=O)O)C(=O)N[C@@H](Cc1ccc(O)cc1)C(=O)N[C@@H](Cc1c[nH]cn1)C(=O)N[C@@H](CCCCN)C(=O)N2) [cyclo(-Tyr-His-Lys-Cys-His-Gly-^DPro-Trp-Thr-Ile-Cys-Tyr-Glu-Lys-^DAla-Glu-)]	124
cyclo(YHKCHG[dP]WTICYEK[dP]P) (disulfide 4-11) [cyclo(-Tyr-His-Lys-Cys-His-Gly-^DPro-Trp-Thr-Ile-Cys-Tyr-Glu-Lys-^DPro-Pro-)]	44
cyclo(YH[Orn]CHG[dP]WTICYEK[dP]P) (disulfide 4-11) [cyclo(-Tyr-His-Orn-Cys-His-Gly-^DPro-Trp-Thr-Ile-Cys-Tyr-Glu-Lys-^DPro-Pro-)]	313
cyclo(YHKCHG[dTic]WTICYEK[dP]P) (disulfide 4-11; SMILES CC[C@H](C)[C@@H]1NC(=O)[C@H]([C@@H](C)O)NC(=O)[C@H](Cc2c[nH]c3ccccc23)NC(=O)[C@H]2Cc3ccccc3CN2C(=O)CNC(=O)[C@H](Cc2c[nH]cn2)NC(=O)[C@@H]2CSSC[C@H](NC1=O)C(=O)N[C@@H](Cc1ccc(O)cc1)C(=O)N[C@@H](CCC(=O)O)C(=O)N[C@@H](CCCCN)C(=O)N1CCC[C@@H]1C(=O)N1CCC[C@H]1C(=O)N[C@@H](Cc1ccc(O)cc1)C(=O)N[C@@H](Cc1c[nH]cn1)C(=O)N[C@@H](CCCCN)C(=O)N2) [cyclo(-Tyr-His-Lys-Cys-His-Gly-^DTic-Trp-Thr-Ile-Cys-Tyr-Glu-Lys-^DPro-Pro-)]	21
cyclo(YHKCHG[dP]WTICYWK[dP]P) (disulfide 4-11; SMILES CC[C@H](C)[C@@H]1NC(=O)[C@H]([C@@H](C)O)NC(=O)[C@H](Cc2c[nH]c3ccccc23)NC(=O)[C@H]2CCCN2C(=O)CNC(=O)[C@H](Cc2c[nH]cn2)NC(=O)[C@@H]2CSSC[C@H](NC1=O)C(=O)N[C@@H](Cc1ccc(O)cc1)C(=O)N[C@@H](Cc1c[nH]c3ccccc13)C(=O)N[C@@H](CCCCN)C(=O)N1CCC[C@@H]1C(=O)N1CCC[C@H]1C(=O)N[C@@H](Cc1ccc(O)cc1)C(=O)N[C@@H](Cc1c[nH]cn1)C(=O)N[C@@H](CCCCN)C(=O)N2) [cyclo(-Tyr-His-Lys-Cys-His-Gly-^DPro-Trp-Thr-Ile-Cys-Tyr-Trp-Lys-^DPro-Pro-)]	15
cyclo(YHKCHG[dP]WTICYDK[dP]P) (disulfide 4-11; SMILES CC[C@H](C)[C@@H]1NC(=O)[C@H]([C@@H](C)O)NC(=O)[C@H](Cc2c[nH]c3ccccc23)NC(=O)[C@H]2CCCN2C(=O)CNC(=O)[C@H](Cc2c[nH]cn2)NC(=O)[C@@H]2CSSC[C@H](NC1=O)C(=O)N[C@@H](Cc1ccc(O)cc1)C(=O)N[C@@H](CC(=O)O)C(=O)N[C@@H](CCCCN)C(=O)N1CCC[C@@H]1C(=O)N1CCC[C@H]1C(=O)N[C@@H](Cc1ccc(O)cc1)C(=O)N[C@@H](Cc1c[nH]cn1)C(=O)N[C@@H](CCCCN)C(=O)N2) [cyclo(-Tyr-His-Lys-Cys-His-Gly-^DPro-Trp-Thr-Ile-Cys-Tyr-Asp-Lys-^DPro-Pro-)]	37
cyclo(GHKCHG[dP]WTICYEK[dP]P) (disulfide 4-11; SMILES CC[C@H](C)[C@@H]1NC(=O)[C@H]([C@@H](C)O)NC(=O)[C@H](Cc2c[nH]c3ccccc23)NC(=O)[C@H]2CCCN2C(=O)CNC(=O)[C@H](Cc2c[nH]cn2)NC(=O)[C@@H]2CSSC[C@H](NC1=O)C(=O)N[C@@H](Cc1ccc(O)cc1)C(=O)N[C@@H](CCC(=O)O)C(=O)N[C@@H](CCCCN)C(=O)N1CCC[C@@H]1C(=O)N1CCC[C@H]1C(=O)NCC(=O)N[C@@H](Cc1c[nH]cn1)C(=O)N[C@@H](CCCCN)C(=O)N2) [cyclo(-Gly-His-Lys-Cys-His-Gly-^DPro-Trp-Thr-Ile-Cys-Tyr-Glu-Lys-^DPro-Pro-)]	111
cyclo(DHKCHG[dP]WTICYEK[dP]P) (disulfide 4-11; SMILES CC[C@H](C)[C@@H]1NC(=O)[C@H]([C@@H](C)O)NC(=O)[C@H](Cc2c[nH]c3ccccc23)NC(=O)[C@H]2CCCN2C(=O)CNC(=O)[C@H](Cc2c[nH]cn2)NC(=O)[C@@H]2CSSC[C@H](NC1=O)C(=O)N[C@@H](Cc1ccc(O)cc1)C(=O)N[C@@H](CCC(=O)O)C(=O)N[C@@H](CCCCN)C(=O)N1CCC[C@@H]1C(=O)N1CCC[C@H]1C(=O)N[C@@H](CC(=O)O)C(=O)N[C@@H](Cc1c[nH]cn1)C(=O)N[C@@H](CCCCN)C(=O)N2) [cyclo(-Asp-His-Lys-Cys-His-Gly-^DPro-Trp-Thr-Ile-Cys-Tyr-Glu-Lys-^DPro-Pro-)]	177
cyclo([Dab]HKCHG[dP]WTICYEK[dP]P) (disulfide 4-11; SMILES CC[C@H](C)[C@@H]1NC(=O)[C@H]([C@@H](C)O)NC(=O)[C@H](Cc2c[nH]c3ccccc23)NC(=O)[C@H]2CCCN2C(=O)CNC(=O)[C@H](Cc2c[nH]cn2)NC(=O)[C@@H]2CSSC[C@H](NC1=O)C(=O)N[C@@H](Cc1ccc(O)cc1)C(=O)N[C@@H](CCC(=O)O)C(=O)N[C@@H](CCCCN)C(=O)N1CCC[C@@H]1C(=O)N1CCC[C@H]1C(=O)N[C@@H](CCN)C(=O)N[C@@H](Cc1c[nH]cn1)C(=O)N[C@@H](CCCCN)C(=O)N2) [cyclo(-Dab-His-Lys-Cys-His-Gly-^DPro-Trp-Thr-Ile-Cys-Tyr-Glu-Lys-^DPro-Pro-)]	194
cyclo(HHKCHG[dP]WTICYEK[dP]P) (disulfide 4-11; SMILES CC[C@H](C)[C@@H]1NC(=O)[C@H]([C@@H](C)O)NC(=O)[C@H](Cc2c[nH]c3ccccc23)NC(=O)[C@H]2CCCN2C(=O)CNC(=O)[C@H](Cc2c[nH]cn2)NC(=O)[C@@H]2CSSC[C@H](NC1=O)C(=O)N[C@@H](Cc1ccc(O)cc1)C(=O)N[C@@H](CCC(=O)O)C(=O)N[C@@H](CCCCN)C(=O)N1CCC[C@@H]1C(=O)N1CCC[C@H]1C(=O)N[C@@H](Cc1c[nH]cn1)C(=O)N[C@@H](Cc1c[nH]cn1)C(=O)N[C@@H](CCCCN)C(=O)N2) [cyclo(-His-His-Lys-Cys-His-Gly-^DPro-Trp-Thr-Ile-Cys-Tyr-Glu-Lys-^DPro-Pro-)]	239
cyclo([Dab]HKCWG[dP]WTICYEK[dP]P) (disulfide 4-11; SMILES CC[C@H](C)[C@@H]1NC(=O)[C@H]([C@@H](C)O)NC(=O)[C@H](Cc2c[nH]c3ccccc23)NC(=O)[C@H]2CCCN2C(=O)CNC(=O)[C@H](Cc2c[nH]c3ccccc23)NC(=O)[C@@H]2CSSC[C@H](NC1=O)C(=O)N[C@@H](Cc1ccc(O)cc1)C(=O)N[C@@H](CCC(=O)O)C(=O)N[C@@H](CCCCN)C(=O)N1CCC[C@@H]1C(=O)N1CCC[C@H]1C(=O)N[C@@H](CCN)C(=O)N[C@@H](Cc1c[nH]cn1)C(=O)N[C@@H](CCCCN)C(=O)N2) [cyclo(-Dab-His-Lys-Cys-Trp-Gly-^DPro-Trp-Thr-Ile-Cys-Tyr-Glu-Lys-^DPro-Pro-)]	248
cyclo(YHACWG[dP]WTICYQK[dP]E) (disulfide 4-11; SMILES CC[C@H](C)[C@@H]1NC(=O)[C@H]([C@@H](C)O)NC(=O)[C@H](Cc2c[nH]c3ccccc23)NC(=O)[C@H]2CCCN2C(=O)CNC(=O)[C@H](Cc2c[nH]c3ccccc23)NC(=O)[C@@H]2CSSC[C@H](NC1=O)C(=O)N[C@@H](Cc1ccc(O)cc1)C(=O)N[C@@H](CCC(N)=O)C(=O)N[C@@H](CCCCN)C(=O)N1CCC[C@@H]1C(=O)N[C@@H](CCC(=O)O)C(=O)N[C@@H](Cc1ccc(O)cc1)C(=O)N[C@@H](Cc1c[nH]cn1)C(=O)N[C@@H](C)C(=O)N2) [cyclo(-Tyr-His-Ala-Cys-Trp-Gly-^DPro-Trp-Thr-Ile-Cys-Tyr-Gln-Lys-^DPro-Glu-)]	60
